The source of these data is US20200048360A1 (TRACON PHARMACEUTICALS, published 2020).

Residue numbers refer to the chain shown, from its start. Like-named read-outs stand apart in the source and are kept apart here.

The target of one experiment is T1, recombinant endoglin (UniProt P17813 26-586, limits assumed).
T1 sequence (looked up): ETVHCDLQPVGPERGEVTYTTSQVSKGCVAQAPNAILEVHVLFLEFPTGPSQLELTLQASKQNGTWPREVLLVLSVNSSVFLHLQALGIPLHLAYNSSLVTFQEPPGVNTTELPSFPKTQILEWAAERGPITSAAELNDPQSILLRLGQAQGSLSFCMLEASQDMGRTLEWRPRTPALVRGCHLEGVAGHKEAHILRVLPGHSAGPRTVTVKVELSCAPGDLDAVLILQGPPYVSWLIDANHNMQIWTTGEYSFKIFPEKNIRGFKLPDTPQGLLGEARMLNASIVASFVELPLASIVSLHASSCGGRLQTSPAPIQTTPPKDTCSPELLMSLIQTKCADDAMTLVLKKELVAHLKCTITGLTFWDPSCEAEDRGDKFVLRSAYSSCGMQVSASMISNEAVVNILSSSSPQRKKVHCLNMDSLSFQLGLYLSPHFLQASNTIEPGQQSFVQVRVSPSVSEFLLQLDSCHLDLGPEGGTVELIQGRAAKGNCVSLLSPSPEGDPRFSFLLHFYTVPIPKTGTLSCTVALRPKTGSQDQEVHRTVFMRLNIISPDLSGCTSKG
Briefly: BIAcore SPR, antibody captured on protein A chip, recombinant endoglin as analyte, 25 C. The protocol: Affinity of antibodies can be assessed using, for example, BIAcore analysis using standard protocols. Briefly, protein A is chemically coupled to a BIAcore CM5 chip, with the amount of protein A immobilized corresponding to ˜2000 R U. Subsequent steps are performed in a running buffer of 10 mM HEPES, 150 mM NaCl, 3 mM EDTA, 0.05% TWEEN, pH=7.4, at 25 degrees Celsius using a 10 Hz data collection rate. Anti-endoglin antibody (10 nM) is captured at a 10 μL/min flow rate by the immobilized protein A on the BIAcore chip: typically, capture times of 20, 40 and 80 seconds allow the capture of antibody densities corresponding to 130 RU, 330 RU and 570 RU, respectively. Start-up cycles are performed using running buffer at a flow rate of 40 μl/min, a contact time of 90 seconds and a dissociation time of 90 seconds. Sample cycles are performed using recombinant endoglin at concentrations ranging from 0 to 40 nM. Endoglin is passed over the BIAcore chip containing captured antibody at a flow rate of 40 μl/min with a contact time of 525 seconds and dissociation time of 2500 seconds. Eight sample cycles are typically performed at each antibody capture density Regeneration of the chip is accomplished using 10 mM glycine pH=1.7. Data analysis is performed using BIAcore T100 Evaluation Software v1.1 Signals generated using BIAcore chips with different captured antibody densities are compared and data generated in the absence of recombinant endoglin are used to adjust for the intraassay blank signal. For fitting of the data, the Rₘₐₓ is allowed to float to account for variation in capture levels of each antibody in each cycle. Data from each capture density is fitted simultaneously during analysis of each antibody. BIAcore data are presented in Table 2 for chimeric, humanized and humanized/deimmunized anti-endoglin antibodies, including kₐ (1/Ms), kd (1/s), KD (M) and […] (RU²).
On the technique in general: In SPR one partner is held on a chip, and binding of the other changes the refractive index at the surface.

Experiment [1] deals with T2, human CD105 (R&D Systems, Catalog No. 1097-EN) (human, UniProt P17813 26-586).
T2 construct: Captured on the plate by mouse anti-human CD105 (Southern Biotechnologies 9811-01); also called endoglin
T2 sequence (looked up): T1 sequence (looked up)
Description: ELISA with OD450 falling against test antibody concentration (competition format of paragraph 712: biotinylated chimeric anti-CD105 on captured human CD105; the legend says only 'binding assay data'). A general note: In an ELISA, binding on a coated surface is turned into a signal by an enzyme label.

The target of experiment [2] is T2, human CD105 (R&D Systems, Catalog No. …). The experiment is described as above. The source holds these as a separate data set.
Experiment [3] has the same target. The description is as above. This is another data set of the same source.
The target is the same in experiment [4]. The description is as above. This is another data set of the same source.
For experiment [5] the target is unchanged. The description is as above. The source holds these as a separate data set.
Experiment [6] shares this target. The experiment is described as above. The source holds these as a separate data set.
Experiment [7] shares this target. The experiment is described as above. The source holds these as a separate data set.
Experiment [8] shares this target. Described as above. The source holds these as a separate data set.
The target is the same in experiment [9]. Briefly: competition ELISA on captured human CD105; competitor biotinylated chimeric anti-CD105. The protocol:
Antibodies were tested in a competition ELISA for binding to CD105 against biotinylated chimeric anti-CD105. Briefly, chimeric anti-CD105 was biotinylated using a micro-biotinylation kit (Sigma, Catalog No. BTAG-1KT) following the manufacturer's instructions. […] Binding of the biotinylated chimeric antibody was detected via streptavidin-HRP (Sigma, Catalog No. 55512) and TMB substrate (Sigma, Catalog No. T0440). OD450 nm values were measured on a Dynex MRX TCII plate reader. The results of the competition analysis are illustrated in FIGS. 7 and 8. […] To allow for comparisons within and between experiments, IC50 values of humanized or humanized/deimmunized variants were normalized against the reference antibody that was included on each plate to give a value for the fold difference. IC50 values are relative to chimeric anti-CD105 and are representative of three experiments. Summary ELISA data are presented in Table 1 and include antibody expression levels […]) as assayed in saturated static cultures.

A word on the Kd: it is the concentration at which binding is half-saturated. For orientation: koff means the rate constant with which the complex falls apart. A word on the kon: it is the rate constant with which the complex forms.

B1: chimeric anti-CD105 antibody TRC105 (antibody, V domains shown)
VH: EVKLEESGGGLVQPGGSMKLSCAASGFTFSDAWMDWVRQSPEKGLEWVAEIRSKASNHATYYAESVKGRFTISRDDSKSSVYLQMNSLRAEDTGIYYCTRWRRFFDSWGQGTTLTVSS
VL: QIVLSQSPAILSASPGEKVTMTCRASSSVSYMHWYQQKPGSSPKPWIYATSNLASGVPVRFSGSGSGTSYSLTISRVEAEDAATYYCQQWSSNPLTFGAGTKLELK
notes: Chimeric monoclonal antibody with the murine SN6j variable regions; also called chimeric anti-endoglin antibody; c-SN6j
As for B1, in the experiment with recombinant endoglin, the Kd is 0.6 nM. The koff in the experiment with recombinant endoglin was determined as 3.28e-05 s⁻¹. In addition, the kon with recombinant endoglin is 54700 M⁻¹ s⁻¹. The “IC50 (read off the curve)” value in [1], in [2], in experiment [3], in experiment [4], in [5] and in experiment [6] was roughly 0.2 µg/mL each time. Besides, the “IC50 (read off the curve)” value in [7] and in experiment [8] was roughly 0.2 µg/mL each time.

B2: VK2AAVH1A2 (antibody, V domains shown)
VH: EVQLVESGGGLVKPGGSLRLSCAASGFTFSDAWMDWVRQAPGKGLEWVGEARSKASNHATYYAESVKGRFTISRDDSKNTLYLQMNSLKTEDTAVYYCTRWRRFFDSWGQGTLVTVSS
VL: DIQLTQSPSSLSASVGDRATITCRASSSVSYMHWYQQKPGKAPKPWAYATSNLASGVPSRFSGSGSGTDYTLTISSLQPEDFATYYCQQWSSNPLTFGGGTKVEIK
notes: IgG1 heavy chain, kappa light chain
Take B2: the “Relative IC50 (fold of chimeric anti-endoglin antibody)” value in experiment [9] is 0.99 fold relative to chimeric. For the same molecule, the “IC50 (read off the curve)” value in [8] was roughly 0.2 µg/mL.

B3: VK1AAVH1R (antibody, V domains shown)
VH: B2 VH with A51I, K54R
VL: B2 VL with L4M
notes: as for B2
Take B3: the “Relative IC50 (fold of chimeric anti-endoglin antibody)” value in experiment [9] is 1.05 fold relative to chimeric. Moreover, in the experiment with recombinant endoglin, the Kd came out at 0.533 nM, the koff came to 3.41e-05 s⁻¹ and the kon was 64000 M⁻¹ s⁻¹. Besides, in experiment [7], the “IC50 (read off the curve)” value was roughly 0.2 µg/mL.

B4: VK1AAVH1Q (antibody, V domains shown)
VH: B2 VH with A51I, K54Q
VL: B2 VL with L4M
notes: as for B2
Regarding B4, the “Relative IC50 (fold of chimeric anti-endoglin antibody)” value in experiment [9] was 1.3 fold relative to chimeric. Also, in the experiment with recombinant endoglin, the Kd was 0.85 nM, the koff turned out to be 3.03e-05 s⁻¹ and the kon stood at 35600 M⁻¹ s⁻¹. Moreover, the “IC50 (read off the curve)” value in experiment [6] is roughly 0.2 µg/mL.

B5: VK1AAVH1A2 (antibody, V domains shown)
VH: B2 VH
VL: B2 VL with L4M
notes: IgG1 heavy chain, kappa light chain; also called humanized/deimmunized anti-endoglin antibody VK1AAVH1A2
For the molecule B5, the “Relative IC50 (fold of chimeric anti-endoglin antibody)” value in experiment [9] is 1.12 fold relative to chimeric. Moreover, in the experiment with recombinant endoglin, the Kd worked out at 0.706 nM, the koff is 3.25e-05 s⁻¹ and the kon turned out to be 46000 M⁻¹ s⁻¹. For the same molecule, the “IC50 (read off the curve)” value in [5] was roughly 0.2 µg/mL.
